Results reported in patent US20210292396A1.

Legend:
Assay in all cases: cell-based or functional assay
[1] = target: Env of HIV isolate 001428-2.42 (clade C) (HIV)
[2] = target: Env of HIV isolate 6545.v4.c1 (clade AC) (HIV)
[3] = target: Env of HIV isolate HO86.8 (clade B) (HIV)
[4] = target: 208-member cross-clade virus panel
[5] = target: HIV Env of isolate 6322.v4.c1 (HIV)
[6] = target: Env of HIV isolate 3817.v2.c59 (clade CD) (HIV)
[7] = target: Env of HIV isolate 6631.v3.c10 (clade C) (HIV)
[8] = target: Env of HIV isolate BL01.DG (clade B) (HIV)
[9] = target: Env of HIV isolate DJ263.8 (clade AG) (HIV)
[10] = target: Env of HIV isolate 0260.v5.c36 (clade A) (HIV)
[11] = target: Env of HIV isolate DU422.01 (clade C) (HIV)
[12] = target: Env of HIV isolate UG024.2 (clade D) (HIV)
[13] = target: Env of HIV isolate CNE59 (clade AE) (HIV)
[14] = target: Env of HIV isolate BR07.DG (clade B) (HIV)
[15] = target: Env of HIV isolate BG505.W6M.C2 (clade A) (HIV)
[16] = target: Env of HIV isolate CAP210.E8 (clade C) (HIV)
[17] = target: Env of HIV isolate CNE58 (clade C in Table 7) (HIV)
[18] = target: Env of HIV isolate ZA012.29 (clade C) (HIV)
[19] = target: Env of HIV isolate CAP45.G3 (clade C) (HIV)
[20] = target: Env of HIV isolate 96ZM651.02 (clade C) (HIV)
[21] = target: Env of HIV isolate MN.3 (clade B) (HIV)
[22] = target: Env of HIV isolate T33-7 (clade AG) (HIV)
[23] = target: Env of HIV isolate Q23.17 (clade A) (HIV)
[24] = target: HIV Env of isolate CAP256.206.C9 (HIV)
[25] = target: Env of HIV isolate 16936-2.21 (clade C) (HIV)
[26] = target: Env of HIV isolate 263-8 (clade AG) (HIV)
[27] = target: Env of HIV isolate 5768.04 (clade B) (HIV)
[28] = target: Env of HIV isolate BR025.9 (clade C) (HIV)
[29] = target: Env of HIV isolate ZM176.66 (clade C) (HIV)
[30] = target: HIV Env of isolate CAP45.G3 (HIV)
[31] = target: Env of HIV isolate CNE57 (clade B) (HIV)
[32] = target: HIV Env of isolate CNE20 (HIV)
[33] = target: Env of HIV isolate BaL.26 (clade B) (HIV)
[34] = target: Env of HIV isolate CH181.12 (clade BC) (HIV)
[35] = target: Env of HIV isolate 620345.c1 (clade AE) (HIV)
[36] = target: Env of HIV isolate Q259.17 (clade A) (HIV)
[37] = target: Env of HIV isolate TRJO.58 (clade B) (HIV)
[38] = target: Env of HIV isolate ZM135.10a (clade C) (HIV)
[39] = target: Env of HIV isolate ZM109.4 (clade C) (HIV)
[40] = target: HIV Env of isolate ZA012.29 (HIV)
[41] = target: HIV Env of isolate CNE15 (HIV)
[42] = target: HIV Env of isolate 0013095-2.11 (HIV)
[43] = target: HIV Env of isolate 0921.v2.c14 (HIV)

B1: ePGT121.15 (ePGT121.15.H6 VH and ePGT121.15.L1 VL) (antibody, V domains shown)
VH: QMQLQESGPGLVKPGETLSLTCSVSGASISSSYWSWLRETPGKGLEWIGYTHHSGDTNYAPSLKSRVHLGLHPSKNQVSLSLTSVTAADTAVYYCARTLHGRRIYGVVAFNEFFTYFYWEVWGKGTQVTVSS
VL: SDISVAPGETVRISCGGESIGSRAVQWYQHRAGQAPKLIIYNNQDRPPGIPERFSGSPDIDFGTTATLTITNVEAGDEATYYCHIWDSRRPTNWVFGGGTTLTVL
B1 showed an IC50, pseudovirus neutralization [1] of 0.002 µg/mL, an IC50, pseudovirus neutralization [2] of over 50 µg/mL and an IC50, pseudovirus neutralization [3] of over 50 µg/mL. The % vs Neutralized, IC50 < 0.01 ug/ml [4] was 49%, the % vs Neutralized, IC50 < 0.1 ug/ml [4] was 63% and the % vs Neutralized, IC50 < 1.0 ug/ml [4] was 70%. It also gave a % vs Neutralized, IC50 < 10 ug/ml [4] of 75%, a % vs Neutralized, IC50 < 50 ug/ml [4] of 77% and a % vs Neutralized, IC80 < 0.01 ug/ml [4] of 26.9%. For the same binder, the % vs Neutralized, IC80 < 0.1 ug/ml [4] was 56.2%, the % vs Neutralized, IC80 < 1.0 ug/ml [4] was 63.5% and the % vs Neutralized, IC80 < 10 ug/ml [4] was 70.2%. The % vs Neutralized, IC80 < 50 ug/ml [4] was 72.6%, the Geometric Mean (IC50) [4] was 0.0148 µg/mL and the Geometric Mean IC80 [4] was 0.0351 µg/mL. It also gave a Median IC50 [4] of 0.0055 µg/mL, a Median IC80 [4] of 0.015 µg/mL and a Total VS Neutralized, IC50 < 0.01 ug/ml (viruses of 208) [4] of 101. For the same binder, the Total VS Neutralized, IC50 < 0.1 ug/ml (viruses of 208) [4] was 130, the Total VS Neutralized, IC50 < 1.0 ug/ml (viruses of 208) [4] was 145 and the Total VS Neutralized, IC50 < 10 ug/ml (viruses of 208) [4] was 156. For the same binder, the Total VS Neutralized, IC50 < 50 ug/ml (viruses of 208) [4] was 160, the Total VS Neutralized, IC80 < 0.01 ug/ml (viruses of 208) [4] was 56 and the Total VS Neutralized, IC80 < 0.1 ug/ml (viruses of 208) [4] was 117. The Total VS Neutralized, IC80 < 1.0 ug/ml (viruses of 208) [4] was 132, the Total VS Neutralized, IC80 < 10 ug/ml (viruses of 208) [4] was 146 and the Total VS Neutralized, IC80 < 50 ug/ml (viruses of 208) [4] was 151. The IC80, pseudovirus neutralization [5] was over 50 µg/mL, the IC50, pseudovirus neutralization [6] was 0.984 µg/mL and the IC50, pseudovirus neutralization [7] was 0.015 µg/mL. It also gave an IC50, pseudovirus neutralization [8] of 13.1 µg/mL, an IC50, pseudovirus neutralization [9] of 0.013 µg/mL and an IC50, pseudovirus neutralization [10] of 0.004 µg/mL. For the same binder, the IC50, pseudovirus neutralization [11] was 0.01 µg/mL, the IC50, pseudovirus neutralization [12] was 0.516 µg/mL and the IC50, pseudovirus neutralization [13] was over 50 µg/mL. For the same binder, the IC50, pseudovirus neutralization [14] was 0.009 µg/mL, the IC50, pseudovirus neutralization [15] was 0.066 µg/mL and the IC50, pseudovirus neutralization [16] was 0.052 µg/mL. The IC50, pseudovirus neutralization [17] was 0.023 µg/mL, the IC50, pseudovirus neutralization [18] was 0.004 µg/mL and the IC50, pseudovirus neutralization [19] was 2.25 µg/mL. The IC50, pseudovirus neutralization [20] was 0.001 µg/mL, the IC50, pseudovirus neutralization [21] was 0.004 µg/mL and the IC50, pseudovirus neutralization [22] was over 50 µg/mL. It also gave an IC50, pseudovirus neutralization [23] of 0.003 µg/mL, an IC80, pseudovirus neutralization [24] of 0.006 µg/mL and an IC50, pseudovirus neutralization [25] of 0.003 µg/mL. The IC50, pseudovirus neutralization [26] was 0.014 µg/mL, the IC50, pseudovirus neutralization [27] was 0.028 µg/mL and the IC50, pseudovirus neutralization [28] was 0.002 µg/mL. For the same binder, the IC50, pseudovirus neutralization [29] was 0.073 µg/mL, the IC80, pseudovirus neutralization [30] was 24.1 µg/mL and the IC50, pseudovirus neutralization [31] was 0.004 µg/mL. It also gave an IC80, pseudovirus neutralization [32] of 0.005 µg/mL, an IC50, pseudovirus neutralization [33] of 0.003 µg/mL and an IC50, pseudovirus neutralization [34] of 0.003 µg/mL. The IC50, pseudovirus neutralization [35] was over 50 µg/mL, the IC50, pseudovirus neutralization [36] was over 50 µg/mL and the IC50, pseudovirus neutralization [37] was 0.007 µg/mL. For the same binder, the IC50, pseudovirus neutralization [38] was 0.119 µg/mL, the IC50, pseudovirus neutralization [39] was 3.37 µg/mL and the IC80, pseudovirus neutralization [40] was 0.012 µg/mL. The IC80, pseudovirus neutralization [41] was over 50 µg/mL, the IC80, pseudovirus neutralization [42] was 11.9 µg/mL and the IC80, pseudovirus neutralization [43] was 5.71 µg/mL.
